Experimental data taken from the supplement of paper PMC9170038.

Experiments:
MS2 coat protein [1] = assay: apparent KD of MS2 coat protein, switch OFF state (with FMN for OFF switches, without FMN for ON switches); designed switch direction (-1 OFF switch, 1 ON switch): 1; higher = weaker reporter binding; details: FMN input: 0 or 200 uM; Eterna round: R93 (includes R88 designs)
Method in brief: (§1)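 The buffer was 100 mM Tris-HCl pH 7.5 with 80 mM KCl and 4 mM MgCl2, used without or with constant ligand. In it, RNA switches transcribed on-chip from Illumina sequencing clusters were titrated with SNAP-549-labelled MS2 coat protein in twofold steps from 0.7 or 1.5 nM to 3 µM. Apparent KD for each design is the median of its normalised cluster binding-curve fits.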

MS2 coat protein [2] = assay: apparent KD of MS2 coat protein, switch ON state; designed switch direction (-1 OFF switch, 1 ON switch): 1; higher = weaker reporter binding; details: FMN input: 0 or 200 uM; Eterna round: R93 (includes R88 designs)
Method in brief: as §1

Sequence	apparent KD of MS2 coat protein (MS2 coat protein [1])	apparent KD of MS2 coat protein (MS2 coat protein [2])
ACAAAACAUGAGGAUCACCCAUGUGAGAACAUGAAAGGAUAUACUAGGACGAGAGUCAAUGUAGAAGGUUCUAGAA [SS - 1]	39 nM	34.6 nM
GUGGUGUAGAUACAGGAUAUGUUGCUCGUAACAUGAGGAUCACCCAUGUAUCUAUGAGAUUAAAUGCAGAAGGGUGCACACCACG [Maerveen]	374 nM	17.3 nM
ACAAGGCUACACUAGGAUAUGGGUGUCUAAACAUGAGGAUCACCCAUGUGAUGGCAAAACAAAGCUCAGAAGGAGUCGUAGCCCA [Anvemais]	27.4 nM	14.7 nM
GAAAAACAUGAGGAUCACCCAUGUGACAACAUGGGAGGAUAUACAUGGACGAUAGUCAAAGUAGAAGGCCUAAAAG [Garnet 63]	24.4 nM	142 nM
AAAGAAAAACUAGAGGAUAUCUGAAUGAUAACAUGAGGAUCACCCAUGUGAAGAAAGGAAUAUGAGGAGAAGGCUAGAAGAAAAA [JL Nando mod 19]	44.9 nM	33.9 nM
GGAAGACAUGAGGAUCACCCAUGUGGGAAUAUGGGAGGAUAUACAAAGACGAGAGUCAGAGUAGAAGGCCUAGGAG [salish99-ss1-101]	106 nM	68.2 nM
GCUGGGCUACACUAGGAUAUGGGUGUCUAAACAUGAGGAUCACCCAUGUGAUGGCAAAACAAAGCUCAGAAGGAGUCGUAGCCCA [Inrionarus]	22.3 nM	14.7 nM
ACUUCACAUGAGGAUCACCCAUGUCAGGCCGGACUAGGAUAUUAUAAACCAGAGUAAAAAUAAGAAGGAGUAGGAA [JR_SS001_Sub311]	75.2 nM	67.9 nM
AAGAAACAUGAGGAUCACCCAUGUGUAAAUAUGGGAGGAUAUACAAGGACGUAAGUCAAGGUAGAAGGCCUAAGAA [Mat - Same State 1 - Meechl mod - D137]	319 nM	29.4 nM
AAAAAACAUGAGGAUCACCCAUGUAAAAAAAUGGGAGGAUAUACAAAAACGAAAAAAAAAGUAGAAGGCCUGAAAA [same state 8]	162 nM	57.4 nM
AAACCACAUGAGGAUCACCCAUGUAAAAUAUACAUAGGAUAUGCGAAAAGAAACAAAGAAGCAGAAGGGUGAAAAA [75%, Ex sub1, 16]	32.1 nM	36.4 nM
CGAGAACAUGAGGAUCACCCAUGUAAUGAAUGGUCAGGAUAUGGAGAUAGAUGACAAGCGCCAGAAGGGACAUCAG [JR_SS001_Sub1001]	53.9 nM	42.9 nM
GACAGACAUGAGGAUCACCCAUGUACAAACGUACAAGGAUAUGUGUGGAAACCGUACUAUACAGAAGGUGUCUGUC [SS1 - 90]	90.3 nM	126 nM
AAACCACAUGAGGAUCACCCAUGUGUAAAAAAUACAGGAUAUGGAAACACGAAAGUGAAACCAGAAGGGUGAAAAA [77%, Mat - Mod of Eli, 30]	24.3 nM	19 nM
UAAAAAAAAAGGCAGGAUAUCCAAAAUAAAACAUGAGGAUCACCCAUGUAAAAAAAAAAAAAAUGGGAGAAGGGCCAAAAAAAAU [Mat - Same State 2 - Mod - 159]	27 nM	14 nM
AAUAUAUUAAGUGAGGAUAUCGAGGAAAAAACAUGAGGAUCACCCAUGUGGGAAACCUGGUCGGGUGAGAAGGCACUUAAUAUAU [Samwise Clockwise 26 - Jieux - Same State 2]	76.7 nM	19.8 nM

Sequence	apparent KD of MS2 coat protein (MS2 coat protein [1])	apparent KD of MS2 coat protein (MS2 coat protein [2])
AGGAAACAUGAGGAUCACCCAUGUAGAAAUAUGGGAGGAUAUACAAAGACGAAAGUCAAAGUAGAAGGCCUAAAAG [76%, Meechl 1]	63 nM	22.8 nM
AAUAAACAUGAGGAUCACCCAUGUCGGUAAAGUCAAGGAUAUGGGACUGGGAUUAAAGUGCCAGAAGGUGAAAAUA [Raxela]	351 nM	122 nM
CUGGACCUAGGAUAGGAUAUGUGAAUAAUUACAUGAGGAUCACCCAUGUCCAUUUAUAUGGGAACAUAGAAGGGUUCUGGUUAAG [Mat - Same state - Malcolm Mod - D146]	66.1 nM	42.2 nM
GAAAAACAUGAGGAUCACCCAUGUAGAAAUAUGGGAGGAUAUACUAAGACGAAAGUCGAAGUAGAAGGCCUAAAAG [Same State 1.4f (Mat - Mod of Eli - )]	54.2 nM	21.7 nM
AAACCACAUGAGGAUCACCCAUGUAAAAUUAUGGGAGGAUAUACUAGAAGAAACAAAAUAGUAGAAGGCCUAAAAA [75%, Ex sub1, 33]	74.2 nM	15.9 nM
AAAAAACAUGAGGAUCACCCAUGUGCAAAAUUCGCAGGAUAUUCCUCAAUUAAAUGAAAGGAAGAAGGGUGAUAAA [Nob's Hobby 31 - Jieux - Same State 1]	429 nM	79.7 nM
CAGGACCUAGGAUAGGAUAUAUGAAUAAUUACAUGAGGAUCACCCAUGUCCAUUUAUAUGGGAACAUAGAAGGGUUCUGGUUAUG [Mat - Same state - Malcolm Mod - D134]	50.3 nM	20.8 nM
AAAAAACAUGAGGAUCACCCAUGUAAAAAAAACACAGGAUAUCCCUUUUAAAAAAAAAAAGGAGAAGGGUGAAAAA [Nob's Hobby 5 - Jieux - Same State 1]	29.9 nM	16.1 nM
AAAUAAAGGACUGAGGAUAUACCACAUGAAACAUGAGGAUCACCCAUGUUGAAAAACAAAGGGUGGUAGAAGGCAGUCCACAAAC [Same State 2.5c ( so lets mod hyphema)]	14.1 nM	10.7 nM
AGCAUAGACAGAGAGGAUAUCCACGAGACAACAUGAGGAUCACCCAUGUGAAAGAGAAUACGAUGGGAGAAGGCUCGCGAUACGA [Topaz 49]	19.7 nM	13.4 nM
AGGAGACAUGAGGAUCACCCAUGUGAGAAGAGGCGAGGAUAUCGAAAGAAAGAAGAGAAACGAGAAGGCGCGAGAA [salish99-SS1-017]	30.3 nM	15 nM
CAUCAACAUGAGGAUCACCCAUGUCAUUGAUGUCAAGGAUAUGGGAGACAUAAAAUUCUUCUAGAAGGUGAAAGAU [Mainuson]	176 nM	636 nM
AAGAAACAUGAGGAUCACCCAUGUAAGAUAAACACAGGAUAUGCGAAAAUAAACAAAGAAGCAGAAGGGUGAAGAA [Mat - Same State 1 - Tesla mod - 62]	41.9 nM	13.5 nM
AUAAAAGAAGCGAAGGAUAUCCAAAGAACCACAUGAGGAUCACCCAUGUAAAGAAAGAAAAAGUGGGAGAAGGUCGCAAAGAAUA [73%, More Fisker Same State 2, D3, 5]	53.7 nM	26.6 nM
AAAAAACAUGAGGAUCACCCAUGUAAAAAAAUCGCAGGAUAUAGGGUCGCGAAAGCGACCCUAGAAGGGCGAUCCU [Louisiana 2 - Jieux - Same State 1]	76.1 nM	52 nM
GAAAAACAUGAGGAUCACCCAUGUGAAAAUAUGGGAGGAUAUACAAAGACGAAAGUCAAAGUAGAAGGCCUAAGAG [Garnet 34]	72 nM	22.1 nM
